According to patent US20210380691A1 (published 2021):

T1: human NKp30 (human, UniProt O14931 19-135)
T1 chain: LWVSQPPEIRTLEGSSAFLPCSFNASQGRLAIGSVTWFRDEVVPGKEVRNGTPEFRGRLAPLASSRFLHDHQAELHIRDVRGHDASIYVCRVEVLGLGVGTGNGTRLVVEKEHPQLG

T2: cynomolgus NKp30 (cynomolgus, UniProt P61483 19-135)
T2 chain: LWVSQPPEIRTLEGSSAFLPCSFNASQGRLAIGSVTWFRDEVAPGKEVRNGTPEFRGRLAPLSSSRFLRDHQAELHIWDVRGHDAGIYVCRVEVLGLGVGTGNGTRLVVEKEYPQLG


Experiments:
Assay in all cases: ELISA (A450)
human NKp30 = molecular target: T1, human NKp30
cynomolgus NKp30 = molecular target: T2, cynomolgus NKp30
Rat NKp30 = molecular target: Rat NKp30

Row | IC50 (human NKp30) [nM] | IC50 (cynomolgus NKp30) [nM] | IC50 (Rat NKp30) [nM] | Binder
1 | 0.89 | 0.89 | – | hamster anti-NKp30 antibody 9D9 (antibody, V domains shown) VH: QIQLQESGPGLVKPSQSLSLSCSVTGFSINTGGYHWNWIRQFPGKKVEWMGYIYSSGTTKYNPSLKSRISITRDTSKNQFFLQLNSVTTEDTATYYCARGDWHYFDYWGQGTMVAVSS VL: SYTLTQPPLVSVALGQKATIICSGENLSDKYVHWYQQKPGRAPVMVIYENDKRPSGIPDQFSGSNSGNIATLTISKAQAGYEADYYCHCWDSTNSAVFGSGTHLTVL
2 | – | – | 0.32 | 9D9-1C1 (antibody, V domains shown) VH: QIQLQESGPGLVKPSQSLSLSCSVTGFSINTGGYHWNWIRQFPGKKVEWMGYIYSSGTTKYNPSLKSRISITRDTSKNQFFLQLNSVTTEDTATYYCARGDWHYFDYWGQGTMVAVSS VL: SYTLTQPPLVSVALGQKATIICSGENLSDKYVHWYQQKPGRAPVMVIYENDKRPSGIPDQFSGSNSGNIATLTISKAQAGYEADYYCHCWDSTNSAVFGSGTHLTVL
